# Reference: the DeepSol protein solubility set
# Assay: soluble on expression in E. coli; label from the status in PepcDB or PDB records
row,Sequence,soluble on expression in E. coli
1,MMASHSDGKNMAKRKKRTKRGRPRINGCIREPNGRISRTKMPLDPIDKLAIEMRAKRFCLTLQEAKNPLSGTYIGRLYLQGNINQDQYDAAQKYLEVRNDYLCAKTLPSAIYDKMPSSSDEAARKKWVEFATKQFLNMQEVIKETQHLYRQHNFYAALQYLVSEDQELPYLVPSLADSP,not soluble
2,MMCISKLPAVLLILSVALNHLRATPVRSGSNPQMDKRKCNTATCATQRLANFLVRSSNNLGPVLPPTNVGSNTYGKRNAAGDPNRESLDFLLV,not soluble
3,MMDRVCRLSLAALLAGSGAAYADGSTLTVAYYGGNWGEAFDACVAQPFTEKTGIRVVAEIGNSTTTLAKLQQQSGDAVIDVAYMDGGISELAQEAGVLAPIDLAAIPNAASYLPQAVYKAGDEVFAVSAGYYSLGLIYNTSEVTETPDTWLSLWDESYAGAVALPSPSNSSGVPFVLFLARSVLGDTSESLDPTFAKLKELDTGLLFDSSGAASNAFQSSEVIIGAHFNVGAWDLTDGGLPIGFSVPKEGVWATDARMHVVKGTKNPEGAAQYLDMAASPEAAACLAERLYLGPPVTGVTLAPDVERKLPWGEGGSVEKLHLSDWTEVNARRAAIVERWNREIAN,not soluble
4,MMHNPAHPGEVLKVAFLEEMGLTIQKLADHLHMTRASLSRVINGHASMSTELAIKLELAGFSKAKFWLDMQTNYNLWKTMQQAQPPISPLVSDSPQTSL,not soluble
5,MMIMREILISECIELLRSHKFIVSKPLGRSCFDMVASKEDIRLILKILKNIDSLSRDQSKELKKISKILHGTPLIIGIRTRNAPMEHGVVYDRYNIKAVTFETFRDYLEGSPPMVYANRGGFFVKIDGKVLKEVREAMGISVGKLAEVAGVSRKAIYKYETQMANPSVDVALKIEEFLDVPLVKGIDLFEPVDDEDVENKLENLEDFKKEAINFLNELGFKSFVVEKAPFDAVAEKDMDNNLNILLTNIEEKDNEEVKRKALFVRELSRLLDGYSLLILEEKEKEYKNLPVVSIEELKKMDDALELIEHIKSMLRDIR,soluble
6,MMKIAIIGSGISGLTCGYYLHRYHDITLFEANDYIGGHTATVDVELAGKPYAVDTGFIVYNDRTYPNFIKMMDEIGVQGKPTQMSFSVRNDANGLEYNGHTLTTLFAQKRNWLNPKFYRFIAEILRFNRLTKACVDNQLANEQTLGDFLAQHQFSEYFCENYILPMGAAIWSSSLADMRAFPLMFFARFFLNHGLLDVTNRPQWYVIPGGSRSYIAPLTQGFGDRIRLNSAVTQVKRLPSGVEVVVNGRSERFDEVIFACHSDQALAMLSDASSTEQQLLSALAYQANEVVLHTDTRLLPKRKAAWAAWNYWLKGEANQETRLPSLTYNMNILQHIEAPETFCVTLNSSEDIDPSKILRRFTYHHPVFSRPAIEAQQKKAQISGVNHTWFCGAYWHNGFHEDGVRSALDVVTQLEAYAQRSEQGAA,not soluble
7,MMKIVPPKPFFFEAGERAVLLLHGFTGNSADVRMLGRFLESKGYTCHAPIYKGHGVPPEELVHTGPDDWWQDVMNGYEFLKNKGYEKIAVAGLSLGGVFSLKLGYTVPIEGIVTMCAPMYIKSEETMYEGVLEYAREYKKREGKSEEQIEQEMEKFKQTPMKTLKALQELIADVRDHLDLIYAPTFVVQARHDEMINPDSANIIYNEIESPVKQIKWYEQSGHVITLDQEKDQLHEDIYAFLESLDW,soluble
8,MMKKIAITCALLSSLVASSVWADAASDLKSRLDKVSSFHASFTQKVTDGSGAAVQEGQGDLWVKRPNLFNWHMTQPDESILVSDGKTLWFYNPFVEQATATWLKDATGNTPFMLIARNQSSDWQQYNIKQNGDDFVLTPKASNGNLKQFTINVGRDGTIHQFSAVEQDDQRSSYQLKSQQNGAVDAAKFTFTPPQGVTVDDQRK,soluble
9,MMKTFHWKVDPDMGVDSEPQVSVVRFGDGYEQRRASGINNDLKKYSVTIRVDREDGPGLEGFLSQHNGVKAFLWTPPYGYRQIKVVCRKWSVKAGLLKTTFTATFEQVIS,not soluble
10,MMKVYRLYLRDEYLEMVKSGKKRIEVRVAYPQLKGMKRGDKIIFNDEVPAEVIEVKHYETFRQVLREEPIDKIFPDEPSFERALRRFHNLYPKWKENRYGVIAIKFKLLGRERK,soluble
11,MMQALTYYRDLAANTMPGSNDIMEVKDAFMNGTAPMAIYSTYILPAVIKEGDPKNVGFVVPTEKNSAVYGMLTSLTITAGQKTEETEAAEKFVTFMEQADNIADWVMMSPGAALPVNKAVVTTSTWKDNDVIKALGELPNQLIGELPNIQVFGAVGDKKFTRMGDVTGSGVVSSMVHNVTVGKADLPGTLQTSQKKLDELIEQH,not soluble
12,MMQMPKIGIIGGSGVYGVFEPKEVVKVHTPYGRPSAPIEIGEIEGVEVAFIPRHGKYHEFPPHQVPYRANIWALHELGVERVIAINAVGSLKEEYKPGDIVIIDQFIDFTKKREYTFYNGPKVAHVSMADPFCPELRKIFIETAKELNLPVHERGTYVCIEGPRFSTRAESRMFRQFADVIGMTLVPEVNLARELGMCYVNISTVTDYDVWAEKPVDAQEVLRVMKENEEKVQKLLKRAIPKIPEERKCGCADVLKTMFV,soluble
13,MMQPVIRKNHMDIAWHEYTDENGADIPVTQASLTEKASIIGRVGIMFLSCGTGAWRVRSSMNTLAEIMGITCTADIGLMSIEYTCFDGEEGFTQSLCLTNTGVNTSKLNRLEHFIREFEIDGKDMSGEELHTLLDDIER,not soluble
14,MMQSGYRAPISRKSVVNTTPATPARTDRRTVSMAQQLLMPKATAVWLVDNTALSFDQIATFCKLHPLEVKAIADGEAAQGIKGLDPIATGQLSRDEIARAEGNPSHKLKLSEPKVRVPESKRRGPRYTPVSKRQDRPNAILWLVRNHPELKDAQISRLVGTTKSTIEQIRDRTHWNSANLTPMDPVTLGLCSQIDLDLEVERASRGRPLPTAEELGNTLQPATATEGLDYNNYQREEEQQIDADAVFKKLSSLKSAPKDEDEDDQYLEHHHHHH,soluble
15,MMRSHVITHFSMPNIDLHSHSTISDGMLSPSRLLAHAAVRGVNVLALTDHDDIAGLSEASRSAQQENITLIRGVEISVTWHGRTLHILGLGINPEHPPLTEGLKKIRDGRMDRARAIAAQLDKFGIHGSFEGASAQAGISRLIGRTHFARFLVSQGYAKNVKSVFKKYLVKGKPGHVSHVWVSLDEAIGWIRGSGGQAVIAHPARYKLSNDLLEQLLCEFRELGGAGIEVVSSSHTPEQTRQFAALATRMNLYASCGSDYHGPGESYFDLGRLPALPPECTPIWNEWEIPDYAETGATTLNEQSEQTGLQSPGKSV,not soluble
16,MMSDQENENEHAKAFLGLAKCEEEVDAIEREVELYRLNKMKPVYEKRDAYIDEIAEFWKIVLSQHVSFANYIRASDFKYIDTIDKIKVEWLALESEMYDTRDFSITFHFHGIEGDFKEQQVTKVFQIKKGKDDQEDGILTSEPVPIEWPQSYDSINPDLIKDKRSPEGKKKYRQGMKTIFGWFRWTGLKPGKEFPHGDSLASLFSEEIYPFCVKYYAEAQRDLEDEEGESGLSADGDSEDDDGSLGEVDLPLSDEEPSSKKRKV,soluble
17,MMSLREKLIRELRRRGPIGIDQYEIEELMGFSKSTASEALSKLEAEGIIARRQISGRSKRVWLREFIPYRDPEMIRIGCLKSTEYAGFLSAAKDYCENKGIKAVIRFYNDATSILHDLSTGTLEFGLSPIFTETLFALSRHDIVIAGPVASGGSGIFENPASCENIVATSESTSMMLLSREFRRREGDVKITIFSDPIKASDGFRAGDFRYIAIWEPYASVIGANKLYDYSDLMDTFPCCGIAVSSGRSKDADLKSIIDAYRETDVEIRSDVIDMLSKATRCSKRAVMNSLGSYNFKLKYDMQTILRYMDFIGYPASEDAIKKVFLL,soluble
18,MMTKTQINKLIKMMNDLDYPFEAPLKESFIESIIQIEFNSNSTNCLEKLCNEVSILFKNQPDYLTFLRAMDGFEVNGLRLFSLSIPEPSVKNLFAVNEFYRNNDDFINPDLQERLVIGDYSISIFTYDIKGDAANLLILEHHHHHH,not soluble
19,MMTSNSYWQRLKVAFQYVMPQIYLTQIAGWFAKQKWGKITHFVIKAFAKKYNIDMSIAQKEQFSDYASFNEFFIRPLKENARPINQNPTALCLPADGRISECGHIDDNLLLQAKGHFFSLEDLLAEDKELVETFKNGEFVTTYLSPRDYHRVHMPCDATLRKMIYVPGDLFSVNPFLAQHVPNLFARNERVICVFDTEFGTMVQILVGATITASIGTTWAGVINPPRHNEVKTWTYEGESAVKLLKGQEMGWFQLGSTVINLFQANQVRLADHLSVNEPVRMGEILAYKKLEHHHHHH,not soluble
20,MMVRVMRYKKVPVKKIVNKIIDECDVILLVLDARDPEMTRNRELEKKIKAKGKKLIYVLNKADLVPKDILEKWKEVFGENTVFVSAKRRLGTKILREMIKQSLKEMGKKEGKVGIVGYPNVGKSSIINALTGKRKALTGSVAGLTKGEQWVRLTKNIKLMDTPGVLEMRDEDDLVISGALRLEKVENPIPPALKILSRINNFDNSIIKEYFGVDYEEVDEELLKKIGNKRSYLTKGGEVDLVRTAKTIIKEYQDGKLNYYKVDLKKYGQDRERDISFITKYLKDFPFIEDAKMIVTHLKDFDGLYKKIKKPVLGSEEIDGNIVVVSFGEKTKDACRKKVENLCRERNIEVLSKFGDKIGANNIYVAVGKRVKE,soluble
21,MMVYQRPVFTVISLLRIRNREEAKLVLIGAVVVYRNFVEQTLADAQKNWVKSLVLYDDPGDAVTGILTWFSRYACLHGPRLGPLDTIAVNDNPLYIYCPRRKLEEYAKERIVSFHSEIGSVVCSMSPFDAGVTREKVRYGHNLISPGSCLLPDALEAYVAFLPSKSFLKLPYSVYEVHNDRYVHKFFALLPGSRFHFEVVAVGLAYPAAKKRPSGLGILRCCFTGKTNTCLLEHHHHHH,soluble
22,MNAGKKGVIYTCITGGYDELLNHTFISPEWDYVCFSDDMGINNEKNAQWEIRPLRFEKLDDVRNQRWHKLHPHLLFPESGLSLWVDGNVDILDGEIFHDIDRALNANLLIAPSLHPERNCIYDEFDACRQLGKDDPDVMGRQEYLIKKDGFPKAKGLFETNIIFRCHSHPMVITIMEEWWYWVEQYSRRDQLGFTYVLWKNNYTVEPLSPVSYRFSPGVRFRYGAFHITKEQLIKEKAALEIKVQRFEALICGRLVKVLYKIRKSTVKRWCRVKMQLLNSLCCRKLEHHHHHH,not soluble
23,MNALDLDVLQHARDWLASGRRVHLVTVVQTWGSAPRQAGAMLAVRDDGQVVGSVSGGCIEDDLIARARAGTLPERAERLTYGVTRDEATRFGLPCGGTLRLVAEPLAPRDAWLDEVLQAIAEHRLVRRTIDLHTGAAALEAAAPAEGPDFDGRMFRAVYGPHWRLLIIGANQTAQVRADIAATLDFQVIVCDPREEFHAAWHAPHATLVTTMPDDTVLEIGTDERTAIVALTHDPKLDDMVLLEALKSRAFYVGALGSRANQEKRRERLRLFDLGDEDIARLRGPVGLPIASRTPAEIAVAVAAELVWVRNTLGDREPSGAPLPAALAPAR,not soluble
24,MNALPPARRLRVASIGGGFSGAALAWHLARAHRPERLSISVIEPRLALGGGLAYSSEEPSHRVNVPAVRMSMAPDDPQHFVRWLAGSGELERDADAIWKNGDAYPRRRVFGRYVAEHLAPYLASGAVRHVGGPATGVTREANGAGWTVQTSAGPVIADIVVLAATHPAPAIPAALASLAEASGFVADPYAASALAGIGLDASVLIVGSGLTSADMVTELDRRGHRGRVLALSRRGLRSRGHPDVRGEPFGDFASAPATSALGLLKSIRATLAAAREANVNWQSVFDQLRLQGPVLWAALAPSERARLVRQLRVFWDVHRFRIAPQIASVLDRRQTAGTFDTIAARLVASNDEGENLAVSFQRRGQTRIETARFDAVINTTGPAHGQALQLNPALRSLAEAGLIRSDAYGLGIETSLDSRAIGWDGEAVAGLFVAGPLARGTFGELMGLPEVARHAQMVAAEIARLVDRFPSAEAVGANAGDVATARLEHHHHHH,not soluble
